Source: the nanobody polyreactivity screen of Harvey et al. (2022)

Experiment: yeast display, Sf9 membrane polyspecificity reagent, FACS + sequencing; frameworks hold sequencing errors
Method in brief: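 Sorting gates, low and high (top ~1%), were placed on anti-HA fluorescence to track expression and on streptavidin fluorescence to track reagent binding. A clone's polyreactivity label is taken from the gate it came out of. The reagent was 10% biotinylated, detergent-solubilized Sf9 membrane, applied for 1 hour at 4 °C to galactose-induced yeast display cells.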

Row | Sequence | polyreactivity (PSR sort gate)
1 | QVQLVESGGGLVQAGGSLRLSCAASGSTFVVYAMGWSRQAPGKERELVAAISTSDTSTYYADSVKGRFTISRDNAKNTVYLQMNSLKPEDTAVYYCAADGTYVYINEYEYWGQGTQVTVSS | low polyreactivity
2 | QVQLVESGGGLVQAGGSLRLSSAASGSTFISYAMGRYSQAPGQDRELVAAISSGGGRTSYADSVKGRLTISRDHAKNTVYLQMNSLKPEDTAVYYCNKTPHFPRPGFNYWGQGTHVTVSS | low polyreactivity
3 | QVQHVESGGGLDQAGGSLRLSCAASGFIFGWYAMGWYRPAPGKERELVAAITWSGVRTYYADSVKGRFTISRDNAKNTVYLQMHSLKPEDTAVYYCARAGGSVGRGYKDQDGRGDYWGQGTEVTVSS | low polyreactivity
4 | QVQLVESGGGLVQAGGRLRLTCAASGITFTGNAMGWYRQAPGKERELVAVITSGGSTYYADSVKGRFTISRDNAKNTVYLQMNSLKPEDTAVYYCAAPVYYYYSKAMDYWGQGTQVTVSS | high polyreactivity
5 | QVQLVESGGGLVQAGGSLRLSCAASGRIIWPYAIGWYRQAPGKERELFATITSGGRTNYADSVKGRFTISRDNAKNTVYLQMNSLKPEDTAVYYCIADHWLYYGAGYDYWGQGTQVTVSS | low polyreactivity
6 | QVQLVESGGGLVQAGGSLRLSCAASGSIFGYAMGWYRQAPGKERELVAAITVSGGRTYYADSVKGRFTISRDNAKNTVYLQMNSLKPEDTAVYYCAAYYIKGYSPGYWGQGTQVTVSS | high polyreactivity
7 | QLQLVESGGGLVQAGGSLRLSCAPSGRIFAPYAMGWYIPAPVKERELVAAIRLSGGSTYYADSVKGRFTISRDNAKNTVYLKMNSLKPEDTEVYYCAARYPGVARFYYWGQATQVTVSS | high polyreactivity
8 | QVQLVESGGGLVQAGGSLRLSCAASGLTFANYVMGWYRQAPGKERELVAAISGGGGSTHYADSVKGRFTISRDNAKNTVYLQMNSLKPEDTAVYYCNADKYSVYGEHPYDYWGQGTQVTVSS | low polyreactivity
9 | QVQLVESGGGLVQAGGSLRLSCAASGIFWYNMGWYRPAPGKERELVAAITASGGSRTYYADSVKGRFTISRDNAKNTVYLQMNSLKPEDTAVYYCAASSYSYLYYSWGQGTQVTVSS | high polyreactivity
10 | QVQLVDSGGGLVQAGGSLRLTCAASGIIFYYYAMGWYRQAPGKERELVAAITGTGSRTYYADSVKGRFTISRDNAKNTVYLQMNSLKPEDTAVYYCNARSFATGSKVPARGYWGQGTQVTVSS | high polyreactivity
11 | QVQLVESGGGLVQAGGSLRLSCAASGRIFGFYAMGWYRQAPGKERELVARITLSGGRTYYADSVKGRFTISRDNAKNTVYLQMNSLKPEDTAVYYCAADSIGRLWGYGYWGQGTQVTVSS | high polyreactivity
12 | QVQLVESGGGLVQAGGSLRLSCAASGITLYDNAMGWYRQAPGKERELVAAINVNDVSTYYADSVKGRFTISRDNAKNTVYLQMNSLKPEDTAVYYCAADSLYYGIGYWVVRYDYWGQGTQVTVSS | low polyreactivity
13 | QVKLEESGGGLVQAGGSLRLSSAASGYTIGIYAMGWYRQAPGKERELVAAISADGGITYYADSVKGRFTISRDNAKNTVYLQMNSLKPEDTAFYYCNTLVDQDAYAGFRLDYWGQGSQVTVSS | low polyreactivity
14 | QVQLVESGGGLVQAGGSLRLSCAASGRIFPSYAMVWYIQAPGKEREMVATISYRGTSTYYADSVKGRFTISRDNAKNTVYLQMNSLKPEDTGVYYCNKATRHHFYYWGQGTQVTVSS | high polyreactivity
15 | QVQLVESGGGLVQAGGSLRLTCAASGSTFRVNVMGWYRQAPGTERELVAAITTSGGSTYYADSVKGRFTISRDNAKNTVYLQMNSLKPEDTAVYYCKTTYPSGWGPDMDYWGQGTQVTVSS | low polyreactivity
16 | QVQLVESGGGFVQAGGSLRLSCVPSGRTYEPYAMGWYRQAPGKERELVAAIRWSGDRTYYADSVKGRFTISRDFAKITVYLHMISLKPEDTAVYYCAADYRARRWGMDYWGQGTQVTVSS | high polyreactivity
17 | QVQLVESGGGLVQAGGSLRLSCAASGRISRVYVMGWYRQAPGKERELVAAISFRGGSTFYADSVKGRFTISRDNAKNTVYLQMNSLKPEDTAVYYCAATVYPLAYDYWGQGTQVTVSS | high polyreactivity
